In US20220348635A1, “COMPOSITIONS AND METHODS FOR NEUROLOGICAL DISEASES” (Coda Biotherapeutics, Inc., priority 2019, published 2022):

Key:
Assay type in all cases: cell-based
[1] = Evoked action potentials in transduced rat DRG neurons, RG-3487; conditions: RG-3487 (SA-2) at 3 μM
Procedure: (§1) Using whole cell manual patch clamp electrophysiology in HEK293 cells and rat DRG neurons, the EC50 of the various engineered receptors disclosed herein to Ach and non-native ligands was measured. The rheobase shift was also measured in rat DRG neurons, which reflects the efficacy of the receptors. To calculate the rheobase, first, the amount of current that can produce an action potential was determined. Then the ligand was added, followed by a step wise increase in the current injected up to 700 pA. The current injected after addition of the ligand was divided by, the original current injected to obtain an action potential, to calculate the rheobase. The EC50 was calculated using the Hill equation with peak current measurements from escalating doses of ligand.
(§2) Acetylcholine at 3.0 mM had no effect on evoked action potentials in transduced neurons (n=4) (FIG. 4B).

[2] = YFP quench plate reader assay, response to ABT-126; conditions: LX293T YFP reporter cells
Outline: (§3)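 Anion-flux assay: channel opening admits iodide, quenching a co-expressed YFP reporter in LX293T cells transfected with engineered receptor mutants. Ligands were applied at several doses from 2× solutions in NaI-substituted ECS.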

[3] = Evoked action potentials in transduced rat DRG neurons, acetylcholine; conditions: Acetylcholine at 3.0 mM, n=4
Procedure: as §2

[4] = YFP quench plate reader assay, response to APN-1125; conditions: LX293T YFP reporter cells
Outline: as §3

[5] = High throughput electrophysiology in HEK293T cells, RG-3487
Procedure: To confirm the EC50s determined by plate reader as well as develop a better understanding of maximum current flow, the engineered receptors were subjected to high throughput electrophysiology system, as described below. For HEK293T studies, cDNAs encoding ion channels were cloned into pcDNA3.1 using standard recombination techniques. HEK293T cells from Clontech (Lenti-X™ 293T Cell Line) were cultured in DMEM supplemented with 10% FBS and 1% Pen/Strep to 40-50% confluence using standard cell culture protocols, transfected with ion channel plasmids at a concentration of 18 μg per 15 cm dish using Fugene 6, and grown for an additional 24 hours. Cells were then assayed on a electrophysiological system (IonFluxHT and/or Mercury, Fluxion Biosciences) in which dose-response relationships may be assessed through a microfluidics-based platform for establishing whole cell configurations. […] Data were then analyzed off-line using custom Python scripts to convert data to .csv format, re-plot traces, and apply QC measurements to reject unstable recordings (i.e. thresholding based on access resistance and/or standard deviation in baseline, as well as artifact rejection). Peak currents were then calculated and population data were fit using a 4-parameter logistic equation as described by the Hill Equation. […]

[6] = Manual patch clamp, rat DRG neurons, Facinicline/RG3487; conditions: cultured adult rat DRG neurons expressing the receptor; not observed in non-transduced cells
Procedure: as §1

B1: Y115D, L131Q in SEQ ID NO: 33: CR-11 (Chemogenic receptor-11): SEQ ID NO: 33 with substitutions Y115D and L131Q (protein)
chain: MRCSPGGVWLALAASLLHVSLQGEFQRKLYKELVKNYNPLERPVANDSQPLTVYFSLSLLQIMDVDEKNQVLTTNIWLQMSWTDHYLQWNVSEYPGVKTVRFPDGQIWKPDILLDNSADERFDATFHTNVQVNSSGHCQYLPPGIFKSSCPMDLKNFPMDVQTCKLKFGSWSYGGWSLDLQMQEADISGYIPNGEWDLVGIPGKRSERFYECCKEPYPDVTFTVTMRRRMGYYLIQMYIPSLLIVILSWISFWINMDAAPARVGLGITTVLTMTTQSSGSRASLPKVSYVKAIDIWMAVCLLFVFSALLEYAAVNFVSRQHKELLRFRRKRRHHKSPMLNLFQEDEAGEGRFNFSAYGMGPACLQAKDGISVKGANNSNTTNPPPAPSKSPEEMRKLFIQRAKKIDKISRIGFPMAFLIFNMFYWIIYKIVRREDVHNQ
modifications: synthetic sequence of chimeric LGIC
effect on current injection evoked action potentials [1]: reversibly inhibits
increase in the current required to elicit action potentials ([1]; n=7): ~3 ×
percent quench of YFP fluorescence, 50 nM abt ([2]; 50 nM ABT-126): −1.81%
percent quench of YFP fluorescence, 100 nM abt ([2]; 100 nM ABT-126): −2.61%
percent quench of YFP fluorescence, 300 nM abt ([2]; 300 nM ABT-126): −3.78%
percent quench of YFP fluorescence, 1 uM abt ([2]; 1 uM ABT-126): −2.6%
effect on evoked action potentials [3]: no effect
percent quench of YFP fluorescence, 100 nM apn ([4]; 100 nM APN-1125): −10.03%
percent quench of YFP fluorescence, 1 uM apn ([4]; 1 uM APN-1125): −3.33%
percent quench of YFP fluorescence, 30 uM apn ([4]; 30 uM APN-1125): 6.96%
fold increased potency to RG-3487 compared to wild type receptor [5]: over 10 fold
chloride current on application of RG-3487 (SA-2) [6]: generated chloride current in a dose dependent manner
